What was measured:
[1] = target: T1, SaPC (single-chain pyruvate carboxylase) (Staphylococcus aureus, UniProt A0A0H3JRU9); assay: malate dehydrogenase-coupled PC activity with and without acetyl-CoA; type: biochemical; details: allosteric activator
T1 construct: gene pycA; single-chain homo-tetramer, ~570 kDa by AUC; expression not described here
T1 sequence (A0A0H3JRU9 1-1150): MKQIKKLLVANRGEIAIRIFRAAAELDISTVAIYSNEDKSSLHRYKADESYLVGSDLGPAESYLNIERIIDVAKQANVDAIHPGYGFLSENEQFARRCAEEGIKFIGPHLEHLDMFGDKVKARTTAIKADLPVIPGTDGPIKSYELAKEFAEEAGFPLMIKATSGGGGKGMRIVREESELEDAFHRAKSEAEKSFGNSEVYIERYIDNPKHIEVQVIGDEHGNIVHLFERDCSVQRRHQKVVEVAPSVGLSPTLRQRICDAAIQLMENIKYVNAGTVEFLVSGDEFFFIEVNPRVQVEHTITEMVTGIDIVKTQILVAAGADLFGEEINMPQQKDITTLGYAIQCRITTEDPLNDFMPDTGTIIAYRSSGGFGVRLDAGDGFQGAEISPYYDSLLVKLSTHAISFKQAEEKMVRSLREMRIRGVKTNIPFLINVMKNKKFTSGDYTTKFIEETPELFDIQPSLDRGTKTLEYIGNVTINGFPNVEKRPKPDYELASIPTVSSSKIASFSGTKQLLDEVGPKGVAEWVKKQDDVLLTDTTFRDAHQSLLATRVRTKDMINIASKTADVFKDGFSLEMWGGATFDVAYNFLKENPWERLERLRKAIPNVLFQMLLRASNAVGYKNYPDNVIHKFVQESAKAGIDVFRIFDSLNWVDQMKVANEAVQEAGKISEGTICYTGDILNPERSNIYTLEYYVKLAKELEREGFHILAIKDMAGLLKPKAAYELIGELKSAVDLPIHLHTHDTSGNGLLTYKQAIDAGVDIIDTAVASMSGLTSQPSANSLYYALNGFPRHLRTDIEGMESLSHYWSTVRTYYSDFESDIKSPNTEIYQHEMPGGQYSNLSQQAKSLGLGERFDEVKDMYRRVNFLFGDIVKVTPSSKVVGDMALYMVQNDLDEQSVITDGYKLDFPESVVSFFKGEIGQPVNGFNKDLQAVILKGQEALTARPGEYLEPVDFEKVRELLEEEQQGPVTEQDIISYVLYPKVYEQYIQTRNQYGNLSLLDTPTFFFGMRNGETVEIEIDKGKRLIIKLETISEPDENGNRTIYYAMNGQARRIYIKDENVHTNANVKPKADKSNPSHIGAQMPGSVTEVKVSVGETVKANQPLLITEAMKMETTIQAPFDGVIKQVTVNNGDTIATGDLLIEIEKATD

[2] = target: Methylobacillus flagellatus pyruvate carboxylase (MfPC) α subunit, N-terminal hexa-histidine tag, co-expressed with the β subunit (Methylobacillus flagellatus); assay: SEC; gel filtration of two-subunit PCs purified from E. coli co-expression, with Coomassie-stained SDS-PAGE of the purified complexes and of known amounts of α and β subunits; also with an extra plasmid expressing only α
[3] = target: MfPC β subunit K581A mutant, purified alone (Methylobacillus flagellatus)
[4] = target: MfPC α subunit expressed and purified alone (pET28a, N-terminal hexa-histidine tag) (Methylobacillus flagellatus); assay: SEC; analytical gel filtration of separately purified MfPC α and β subunits, alone and mixed in 1:2, 1:1 or 2:1 molar ratios; peak fractions on SDS-PAGE
[5] = target: MfPC β subunit with the surface entropy reduction mutations K419A, E421A and E422A, untagged (Methylobacillus flagellatus); assay: crystal structure; mutant MfPC (B domain deletion in α; K419A, E421A, E422A in β), 3.0 Å, space group R32, one α2β4 oligomer in the asymmetric unit; sitting drop, 20 °C, 2.5 mM pyruvate, 19% PEG3350, 2% tacsimate pH 6.0, 3% ethanol
[6] = target: MfPC α subunit with the B sub-domain of BC (residues 131–201) replaced by a Gly–Ser–Ser–Gly linker (Methylobacillus flagellatus); assay: as above
[7] = target: MfPC β subunit with the surface entropy reduction mutations K419A, E421A and E422A, untagged (Methylobacillus flagellatus); assay: crystal structure; 'wild-type' MfPC (K419A, E421A, E422A in β), 6.6 Å, space group P3(1)21, one α and two β in the asymmetric unit, α2β4 by a crystallographic two-fold axis; 2.5 mM ATP and 2.5 mM pyruvate, 1.3 M ammonium sulfate, 0.1 M sodium citrate pH 6.0
[8] = target: Methylobacillus flagellatus pyruvate carboxylase (MfPC) α subunit, N-terminal hexa-histidine tag, co-expressed with the β subunit (Methylobacillus flagellatus); assay: as above
[9] = target: Pseudomonas aeruginosa pyruvate carboxylase (PaPC) α subunit (Pseudomonas aeruginosa); assay: AUC; sedimentation velocity, 0.5 mg/ml, 20 °C, 42,000 r.p.m., 20 mM Tris pH 8.0, 150 mM NaCl, continuous c(s) distribution (SEDFIT)
[10] = target: the molecule itself; assay: as above

With CC(=O)SCCNC(=O)CCNC(=O)[C@H](O)C(C)(C)COP(=O)(O)OP(=O)(O)OC[C@H]1O[C@@H](n2cnc3c(N)ncnc32)[C@H](O)[C@@H]1OP(=O)(O)O [acetyl-CoA] as the molecule, how does the activation [1] read?
The activation was “When acetyl-CoA is present, SaPC activity becomes comparable to those of the two-subunit PCs”.

For “Methylobacillus flagellatus pyruvate carboxylase (MfPC) β subunit, untagged, co-expressed with the α subunit (enzyme)”, which stoichiometry N [2] is on record?
The stoichiometry N was 2 β per α.

With “MfPC β subunit A49T mutant, purified alone (enzyme)” as the molecule, how does the pyruvate carboxylase activity of hybrid holoenzymes (A49T and K581A β subunits mixed in a 1:1 ratio, then α subunit added), against the wild-type holoenzyme (% of wild-type activity) [3] read?
The pyruvate carboxylase activity of hybrid holoenzymes (A49T and K581A β subunits mixed in a 1:1 ratio, then α subunit added), against the wild-type holoenzyme (% of wild-type activity) was 29.

With “MfPC β subunit expressed and purified alone (pET28a, N-terminal hexa-histidine tag) (enzyme)” as the molecule, how does the stoichiometry N [4] read?
The stoichiometry N was 2 β per α.

Which stoichiometry N [5] does the source give for “MfPC β subunit with the surface entropy reduction mutations K419A, E421A and E422A, untagged (enzyme)” here?
Its stoichiometry N is 2.

And the stoichiometry N [6]?
The stoichiometry N was 2 β per α.

What about the stoichiometry N [7] of the same molecule?
Its stoichiometry N is 2.

What about the stoichiometry N [8] of the same molecule?
The stoichiometry N was 2 β per α.

How did the stoichiometry N [9] turn out when “Pseudomonas aeruginosa pyruvate carboxylase (PaPC) β subunit (enzyme)” was run?
Its stoichiometry N is 2 β per α.

B1: Staphylococcus aureus pyruvate carboxylase (SaPC), single-chain (enzyme, UniProt A0A0H3JRU9 1-1150, looked up)
chain: T1 sequence (A0A0H3JRU9 1-1150)
notes: single-chain pyruvate carboxylase, Staphylococcus aureus; Used as a control in the ultracentrifugation
Which “stoichiometry N” value [10] does the source give for B1 here?
The value was 4.

— article PMC5059739, “A distinct holoenzyme organization for two-subunit pyruvate carboxylase” (Nature Communications, 2016)
